For three substances, Kd results are on record in paper PMC3694778.

For data set [1], the system named is CLOCK bHLH-PAS-AB;BMAL1 bHLH-PAS-AB (mouse;mouse). Nature of the data set: fluorescence anisotropy. The settings on record: not given in the material (Supplementary Methods not held). A general note: Polarisation of emitted light reports the rotation of a fluorescent probe.
Data set [2] has the same test system. Nature of the data set: fluorescence anisotropy competition. The settings on record: not given in the material (Supplementary Methods not held).

mPer2 E2-box DNA, fluorescein labeled came in with a Kd in data set [1] of 0.059 µM. Take mPer1 E1-box DNA 18-mer, unlabeled: the dissociation constant Kd in data set [2] was 0.009 µM. On the same count and under the same terms, the result for mPer2 E2-box DNA 18-mer, unlabeled reads 0.013 µM.

In general, Kd refers to the concentration at which binding is half-saturated.
